The chains are these.
B1: R-spondin3: R-spondin family protein, medium additive (protein, UniProt Q9BXY4 22-272, looked up)
R-spondin-3: QNASRGRRQRRMHPNVSQGCQGGCATCSDYNGCLSCKPRLFFALERIGMKQIGVCLSSCPSGYYGTRYPDINKCTKCKADCDTCFNKNFCTKCKSGFYLHLGKCLDNCPEGLEANNHTMECVSIVHCEVSEWNPWSPCTKKGKTCGFKRGTETRVREIIQHPSAKGNLCPPTNETRKCTVQRKKCQKGERGKKGRERKRKKPNKGESKEAIPDSKSLESSKEIPEQRENKQQQKKRKVQDKQKSVSVSTVH
B2: Interleukin 10: medium additive (R&D) (protein, UniProt P22301 19-178, looked up)
Interleukin-10: SPGQGTQSENSCTHFPGNLPNMLRDLRDAFSRVKTFFQMKDQLDNLLLKESLLEDFKGYLGCQALSEMIQFYLEEVMPQAENQDPDIKAHVNSLGENLKTLRLRLRRCHRFLPCENKSKAVEQVKNAFNKLQEKGIYKAMSEFDIFINYIEAYMTMKIRN
B3: Amphiregulin: human amphiregulin (R&D Systems), medium additive (protein, UniProt P15514 101-187, looked up)
Amphiregulin: SVRVEQVVKPPQNKTESENTSDKPKRKKKGGKNGKNRRNRKKKNPCNAEFQNFCIHGECKYIEHLEAVTCKCQQEYFGERCGEKSMK
B4: R-spondin1: R-spondin family protein, medium additive (protein, UniProt Q2MKA7 21-263, looked up)
R-spondin-1: SRGIKGKRQRRISAEGSQACAKGCELCSEVNGCLKCSPKLFILLERNDIRQVGVCLPSCPPGYFDARNPDMNKCIKCKIEHCEACFSHNFCTKCKEGLYLHKGRCYPACPEGSSAANGTMECSSPAQCEMSEWSPWGPCSKKQQLCGFRRGSEERTRRVLHAPVGDHAACSDTKETRRCTVRRVPCPEGQKRRKGGQGRRENANRNLARKESKEAGAGSRRRKGQQQQQQQGTVGPLTSAGPA
B5: Fibroblast growth factor 7: fibroblast growth factor 7 (FGF7), medium additive (protein, UniProt P21781 32-194, looked up)
Fibroblast growth factor 7: CNDMTPEQMATNVNCSSPERHTRSYDYMEGGDIRVRRLFCRTQWYLRIDKRGKVKGTQEMKNNYNIMEIRTVAVGIVAIKGVESEFYLAMNKEGKLYAKKECNEDCNFKELILENHYNTYASAKWTHNGGEMFVALNQKGIPVRGKKTKKEQKTAHFLPMAIT
B6: Noggin: medium additive (R&D) (protein, UniProt Q13253 28-232, looked up)
Noggin: QHYLHIRPAPSDNLPLVDLIEHPDPIFDPKEKDLNETLLRSLLGGHYDPGFMATSPPEDRPGGGGGAAGGAEDLAELDQLLRQRPSGAMPSEIKGLEFSEGLAQGKKQRLSKKLRRKLQMWLWSQTFCPVLYAWNDLGSRFWPRYVKVGSCFSKRSCSVPEGMVCKPSKSVHLTVLRWRCQRRGGQRCGWIPIQYPIISECKCSC
B7: Fibroblast growth factor 10: fibroblast growth factor 10 (FGF10), medium additive (protein, UniProt O15520 38-208, looked up)
Fibroblast growth factor 10: QALGQDMVSPEATNSSSSSFSSPSSAGRHVRSYNHLQGDVRWRKLFSFTKYFLKIEKNGKVSGTKKENCPYSILEITSVEIGVVAVKAINSNYYLAMNKKGKLYGSKEFNNDCKLKERIEENGYNTYASFNWQHNGRQMYVALNGKGAPRRGQKTRRKNTSAHFLPMVVHS

The subject of the assay is primary breast tumor epithelial cells isolated from breast cancer tissues (HMFL-XN1, HMFL-XN3, HMFL-XN4, HMFL-XN6, HMFL-XN8). In words: Optimization of primary breast epithelial cell culture medium: cell count after culture with medium additives. The assay is classed as cell-based, human. Set-up: key: +: compared with the basis medium, the medium added with the additive(s) can promote the proliferation of primary breast tumor epithelial cells isolated from at least three cases of breast cancer tissues; −: the medium added with the additive(s) has the effect of inhibiting proliferation of primary breast tumor epithelial cells isolated from at least two cases of breast cancer tissues; ○: the medium added with this additive(s) has no significant effect on the proliferation of primary breast tumor epithelial cells isolated from at least three cases of breast cancer tissues. To be noted: additive at the concentration given in Table 1 added to basis medium; cell count after 10 days of culture, compared with basis medium; five breast cancer samples. The method, then:
Matrigel (registered trademark) (manufactured by BD Biosciences) was diluted at 1:100 in serum-free DMEM/F12 medium to prepare an extracellular matrix dilution, which was added to a 48-well culture plate with 200 μl/well to completely cover the bottom of the wells of the culture plate. The resultant was let stand for 1 hour in a 37° C. incubator. After 1 hour, the extracellular matrix dilution was removed to provide a Matrigel-coated plate.
First, a basis medium was prepared. To a commercial DMEM/F-12 medium, GlutaMAX-I (manufactured by Thermo Fisher SCIENTIFIC) was added at the specified concentration (1:100 dilution), human insulin (manufactured by Sigma) was added at a final concentration of 10 μg/ml, ROCK kinase inhibitor Y27632 (manufactured by Sigma) was added at a final concentration of 10 μM, and penicillin-streptomycin (manufactured by Thermo Fisher SCIENTIFIC) was added at a 1:100 dilution ratio, which provides the basis medium.
Next, different types of additives (as shown in Table 1) were added to the basis medium to prepare breast epithelial cell culture mediums containing different supplementary components, and the mediums with different components were added at a volume of 500 μl/well to 48-well plates which were coated with extracellular matrix gel (Matrigel). Breast tumor cells (HMFL-XN1) isolated from breast cancer tissue in step (1) of this Example were inoculated in a Matrigel-coated 48-well culture plate at a cell density of 1×10^4 cells/well, and equal numbers of freshly isolated breast tumor cells (HMFL-XN1) were cultured under different medium formulations at 37° C., under 5% CO2 concentration and 20% oxygen concentration. The medium was renewed every 4 days after the start of the culture. After 10 days of culture, cell counts were performed. As an experiment control, the basis medium without any additives was used. Breast tumor cells isolated from the remaining four breast cancer tissue samples were cultured and counted in the same manner as above.
As to B1, the Degree of cell result is “○”.
On to B2, for which the Degree of cell entry was “○”.
To B3 belongs “+”; to B4, “○”.
In the case of B5, the Degree of cell entry was “+”.
On to B6, for which the Degree of cell entry is “○”.
Turning to B7, the Degree of cell result is “+”.

These data come from patent publication US20220389379A1, “PRIMARY BREAST EPITHELIAL CELL CULTURE MEDIUM, CULTURE METHOD AND USE THEREOF” (PRECEDO PHARMACEUTICALS CO., LTD, priority 2019, published 2022).
